Data: patent publication US20250367128A1, “BIODEGRADABLE LIPIDOIDS AND COMPOSITIONS AND METHODS OF USE THEREOF FOR LIVER TARGETED DELIVERY” (The Trustees of the University of Pennsylvania, priority 2022, published 2025)
Strand notation (5' to 3'): a small letter for the sugar, then the base; units joined by * are phosphorothioate-linked, units joined directly phosphodiester-linked; [ ] holds rarer units or linkages, { } end groups; capitals alone tell only the bases. [PACE] = phosphonoacetate internucleotide linkage; m = 2'-O-methyl; r = 2'-OH (RNA)

Test system: hPCSK9 exon 7
Experiment: In vitro validation of SpCas9 gRNA (plasmid transfection of cell line)
Type: cell-based, human
Settings: data not shown
Description: In this study, we perform pre-clinical gene editing studies using a PCSK9-hE7 mouse line having a humanized Pcsk9 gene. […] This allows for studies to use renucleic acids which can be directly translated to NHP or human. PCSK9 gene is a “safe harbor” for insertion of a gene therapy mini-gene. Previously, the SpCas9 gRNAs targeting hPCSK9 exon 7 was validated in vitro (plasmid transfection of cell line) with sgR1 yielded 32% indel formation (data not shown).

B1: sgR1: SpCas9 gRNA targeting hPCSK9 exon 7, SEQ ID NO: 1 (nucleic acid)
guide: mG*mA*mC*rCrArArCrUrUrUrGrGrCrCrGrCrUrGrUrGrGrUrUrUrUrArGrAmGmCmUmAmGmAmAmAmUmAmGmCrArArGrUrUrArArArArUrArArGrGrCrUrArGrUrCrCrGrUrUrArUrCrAmAmCmUmUmGmAmAmAmAmAmGmUmGmGmCmAmCmCmGmAmGmUmCmGmGmUmGmCmU[PACE]mU[PACE]mU[PACE]mU
- indel formation: 32%
